Data as given in doi:10.1101/681668 (bioRxiv, 2019).

Legend:
Experiment in all cases: pull-down
MBP-ORC2 = target: T1, MBP-ORC2 (human, UniProt Q13416 1-577)
T1 sequence: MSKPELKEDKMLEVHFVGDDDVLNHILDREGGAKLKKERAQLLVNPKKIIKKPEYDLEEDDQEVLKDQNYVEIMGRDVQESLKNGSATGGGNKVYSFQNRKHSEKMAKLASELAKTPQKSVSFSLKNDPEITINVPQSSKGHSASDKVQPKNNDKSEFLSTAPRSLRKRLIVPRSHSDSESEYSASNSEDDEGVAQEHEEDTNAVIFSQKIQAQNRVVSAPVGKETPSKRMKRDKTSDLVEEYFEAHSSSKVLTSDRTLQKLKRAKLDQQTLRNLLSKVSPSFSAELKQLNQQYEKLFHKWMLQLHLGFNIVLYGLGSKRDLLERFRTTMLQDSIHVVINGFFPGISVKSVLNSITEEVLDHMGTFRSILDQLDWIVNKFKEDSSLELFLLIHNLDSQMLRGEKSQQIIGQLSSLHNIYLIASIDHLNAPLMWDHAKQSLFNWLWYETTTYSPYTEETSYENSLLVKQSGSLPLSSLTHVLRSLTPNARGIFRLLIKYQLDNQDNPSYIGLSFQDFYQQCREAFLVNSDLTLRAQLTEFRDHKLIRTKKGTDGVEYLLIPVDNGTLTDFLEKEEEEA

MBP-ORC1 CDK123 = target: T2, MBP-ORC1 CDK123 (human, UniProt Q13415 1-861, S258A | S273A | T375A)
T2 sequence: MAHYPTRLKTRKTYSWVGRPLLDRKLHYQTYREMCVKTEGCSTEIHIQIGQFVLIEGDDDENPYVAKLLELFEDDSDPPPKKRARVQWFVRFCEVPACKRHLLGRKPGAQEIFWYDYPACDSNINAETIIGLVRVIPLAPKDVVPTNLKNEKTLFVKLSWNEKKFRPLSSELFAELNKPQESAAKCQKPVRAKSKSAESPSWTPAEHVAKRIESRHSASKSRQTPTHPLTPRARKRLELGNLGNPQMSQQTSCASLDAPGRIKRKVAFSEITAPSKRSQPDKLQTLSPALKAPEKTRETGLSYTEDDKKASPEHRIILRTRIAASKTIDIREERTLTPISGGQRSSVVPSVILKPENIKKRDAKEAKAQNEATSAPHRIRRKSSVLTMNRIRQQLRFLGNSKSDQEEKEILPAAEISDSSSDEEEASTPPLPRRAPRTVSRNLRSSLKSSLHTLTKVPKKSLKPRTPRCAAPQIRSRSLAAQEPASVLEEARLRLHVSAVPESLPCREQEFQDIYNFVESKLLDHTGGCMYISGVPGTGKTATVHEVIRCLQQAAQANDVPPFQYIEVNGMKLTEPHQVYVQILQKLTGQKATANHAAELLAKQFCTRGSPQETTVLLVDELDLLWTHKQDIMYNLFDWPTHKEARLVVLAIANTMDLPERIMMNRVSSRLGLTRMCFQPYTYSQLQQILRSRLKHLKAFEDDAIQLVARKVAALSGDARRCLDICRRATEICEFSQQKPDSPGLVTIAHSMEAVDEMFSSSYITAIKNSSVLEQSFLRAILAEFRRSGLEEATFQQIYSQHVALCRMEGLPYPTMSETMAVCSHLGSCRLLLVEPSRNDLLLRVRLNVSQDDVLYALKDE

MBP-ORC1 CDK12 = target: T3, MBP-ORC1 CDK12 (human, UniProt Q13415 1-861, S258A | S273A)
T3 sequence: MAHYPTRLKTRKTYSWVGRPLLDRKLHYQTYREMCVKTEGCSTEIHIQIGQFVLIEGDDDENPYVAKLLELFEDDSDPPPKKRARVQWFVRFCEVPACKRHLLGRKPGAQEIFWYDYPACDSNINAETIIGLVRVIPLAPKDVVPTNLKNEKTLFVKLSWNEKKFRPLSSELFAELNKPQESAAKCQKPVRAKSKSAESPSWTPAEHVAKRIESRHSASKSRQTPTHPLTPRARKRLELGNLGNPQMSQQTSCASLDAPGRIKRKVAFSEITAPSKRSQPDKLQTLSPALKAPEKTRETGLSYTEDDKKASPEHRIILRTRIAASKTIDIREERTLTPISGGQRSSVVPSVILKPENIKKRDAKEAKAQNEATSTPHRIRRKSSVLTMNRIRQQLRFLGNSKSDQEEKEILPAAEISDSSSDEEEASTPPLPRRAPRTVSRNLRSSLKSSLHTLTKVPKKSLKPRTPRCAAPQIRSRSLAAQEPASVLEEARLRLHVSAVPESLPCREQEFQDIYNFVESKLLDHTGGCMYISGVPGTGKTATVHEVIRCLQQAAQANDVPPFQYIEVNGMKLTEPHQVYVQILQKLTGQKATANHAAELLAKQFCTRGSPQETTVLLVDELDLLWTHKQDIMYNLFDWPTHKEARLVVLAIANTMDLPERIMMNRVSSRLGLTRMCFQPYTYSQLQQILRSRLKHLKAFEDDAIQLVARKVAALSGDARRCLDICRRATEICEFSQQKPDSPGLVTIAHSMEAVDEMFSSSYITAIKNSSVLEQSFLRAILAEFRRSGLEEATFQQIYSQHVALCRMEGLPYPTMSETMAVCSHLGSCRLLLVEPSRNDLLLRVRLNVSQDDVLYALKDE

Measured: binding result

B1: GST-CDC6 (natural protein)
chain: MPQTRSQAQATISFPKRKLSRALNKAKNSSDAKLEPTNVQTVTCSPRVKALPLSPRKRLGDDNLCNTPHLPPCSPPKQGKKENGPPHSHTLKGRRLVFDNQLTIKSPSKRELAKVHQNKILSSVRKSQEITTNSEQRCPLKKESACVRLFKQEGTCYQQAKLVLNTAVPDRLPAREREMDVIRNFLREHICGKKAGSLYLSGAPGTGKTACLSRILQDLKKELKGFKTIMLNCMSLRTAQAVFPAIAQEICQEEVSRPAGKDMMRKLEKHMTAEKGPMIVLVLDEMDQLDSKGQDVLYTLFEWPWLSNSHLVLIGIANTLDLTDRILPRLQAREKCKPQLLNFPPYTRNQIVTILQDRLNQVSRDQVLDNAAVQFCARKVSAVSGDVRKALDVCRRAIEIVESDVKSQTILKPLSECKSPSEPLIPKRVGLIHISQVISEVDGNRMTLSQEGAQDSFPLQQKILVCSLMLLIRQLKIKEVTLGKLYEAYSKVCRKQQVAAVDQSECLSLSGLLEARGILGLKRNKETRLTKVFFKIEEKEIEHALKDKALIGNILATGLP
binds: all assays above
